Holding throughout (test): SPR
Data set [1] addresses T1, ADAR1-Zα (UniProt P55265 134-198).
T1 sequence: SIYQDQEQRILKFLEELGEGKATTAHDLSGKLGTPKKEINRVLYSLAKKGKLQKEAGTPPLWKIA

Data set [2] deals with T1, ADAR1-Zα. The source holds these as a separate data set.
In data set [3] the target is T2, ZBP1-Zα (UniProt Q9H171 8-70).
T2 sequence: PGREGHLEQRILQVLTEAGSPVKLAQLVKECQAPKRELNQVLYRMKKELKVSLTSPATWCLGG

Read-outs that look alike come from different tables or passages of the source.

B1: A3 (ssDNA)
DNA: TTCAGCACTCCACGCATAGCCGACCCGCGCCGCATTCACTGCCTACTGCCCGCCGCCCTATGCGTGCTACCGTGAA
With B1, the equilibrium dissociation constant (Kd) in data set [1] was 16.1 ± 3.7 nM.

B2: A13 (ssDNA)
DNA: TTCAGCACTCCACGCATAGCCCGGCCGACGGAACAATCCGTGTTCACTCGTCGCACCCTATGCGTGCTACCGTGAA
Take B2: binding in data set [1] was characterised by a dissociation constant (Kd) of 29.5 ± 7.6 nM.

B3: A2 (ssDNA)
DNA: TTCAGCACTCCACGCATAGCCGGCCAGCCAAGTCCCCGCTCCTCACGGCCCCCCGCCCTATGCGTGCTACCGTGAA
In data set [1], B3 yielded a Kd of 25.7 ± 6.2 nM.

B4: A16 (ssDNA)
DNA: TTCAGCACTCCACGCATAGCACACCGCCCCCCTCTACTCGGCACACTCGCCCGCCCCTATGCGTGCTACCGTGAA
In data set [1], B4 returned a dissociation constant (Kd) of 103 ± 11.9 nM.

B5: A1 (ssDNA)
DNA: TTCAGCACTCCACGCATAGCCGGACGCGCCCCTCTTCCTTGTGTGCTCTCGCCCGCCCTATGCGTGCTACCGTGAA
For B5, in data set [1], the dissociation constant Kd was 31.7 ± 5 nM.

B6: A9 (ssDNA)
DNA: TTCAGCACTCCACGCATAGCCGACCACCCCCCCGACCCGGTGTCACTCCCCGCGCCCCTATGCGTGCTACCGTGAA
Consider B6, for which the Kd in data set [1] worked out at 26.5 ± 5.5 nM.

B7: A11 (ssDNA)
DNA: TTCAGCACTCCACGCATAGCCCGGTGCCGACCGAACCACCGTTGCCCTCCGCATGCCCTATGCGTGCTACCGTGAA
For B7, the dissociation constant Kd in data set [1] came to 104 ± 10 nM.

B8: A10 (ssDNA)
DNA: TTCAGCACTCCACGCATAGCACACGACCGAACTCGCCAACCCTGTCGTCCCGCCCGCCTATGCGTGCTACCGTGAA
Consider B8, for which, in data set [1], the Kd was found to be 99.2 ± 25.3 nM.

B9: A7 (ssDNA)
DNA: TTCAGCACTCCACGCATAGCGACGGGCCAACACCCCAGGTTCGCGTCCCCGCCTGCCCTATGCGTGCTACCGTGAA
B9 displayed an equilibrium dissociation constant (Kd) in data set [1] of 27.7 ± 3.1 nM.

B10: A6 (ssDNA)
DNA: TTCAGCACTCCACGCATAGCCCGCACCCAGCCGCGACTGCCCCCTGGTTCGGCCCGCCTATGCGTGCTACCGTGAA
In data set [1], B10 came in with a Kd of 20.2 ± 2.2 nM.

B11: A15 (ssDNA)
DNA: TTCAGCACTCCACGCATAGCCCGGCGTGAAGACCCGTGTGCTTTCAGGTCGCCCGCCCTATGCGTGCTACCGTGAA
The molecule B11 showed a Kd in data set [1] of 103 ± 17 nM.

B12: A5 (ssDNA)
DNA: TTCAGCACTCCACGCATAGCCCGCCCCCCGCTACTCCCCTCCTGAGTTGCCGTCGCCCTATGCGTGCTACCGTGAA
In data set [1], B12 had a Kd of 2 ± 0.3 nM. Compared with the last molecule, the Kd is about 52-fold lower.

B13: A14 (ssDNA)
DNA: TTCAGCACTCCACGCATAGCACGCCGCCGAAGCAAACCCACGTCCTCGCCCACGGCCCTATGCGTGCTACCGTGAA
Take B13: the equilibrium dissociation constant (Kd) in data set [1] stood at 96.7 ± 11.4 nM. This Kd lies about 48-fold higher than the previous one.

B14: A12 (ssDNA)
DNA: TTCAGCACTCCACGCATAGCACACGCGCGAAGACCCCCACCGATCCGGCCGCTCGTCCTATGCGTGCTACCGTGAA
Turning to B14, the affinity in data set [1], expressed as Kd, was 104 ± 29.2 nM.

B15: A8 (ssDNA)
DNA: TTCAGCACTCCACGCATAGCCCGCCACCACCAATCCTCACACTAGTCCGGCCCGGTCCTATGCGTGCTACCGTGAA
The molecule B15 came in with an equilibrium dissociation constant (Kd) in data set [1] of 99.8 ± 24.6 nM.

B16: A4 (ssDNA)
DNA: TTCAGCACTCCACGCATAGCACGCCCGCCACCCCCTCTCCTGGCCATCCGCGCACACCTATGCGTGCTACCGTGAA
Regarding B16, the Kd was determined as 2.1 ± 0.4 nM in data set [1], 1.8 nM in data set [2] and 255 nM in data set [3].

The values are drawn from doi:10.1101/2025.10.22.683608.
